From paper PMC8979313

Target: T1, Pr(brC)2 (UniProt P03069 226-249+=GC, internal_change)
T1 chain: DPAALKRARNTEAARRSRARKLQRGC
Experiment: EMSA

B1: Random (dsDNA)
DNA 1: AGCGCACGTCCTGCACGTC
DNA 2: GACGTGCAGGACGTGCGCT
Question: Does B1 bind?
Answer: Result: no binding
